# This sample holds only a part of the variants without activity.
# B1: TPR 5TU (parent)
# chain: GGAUCUUCUCGAUCUAACAAAAAAGACAAAUCUGCCACAAAGCUUGAGAGCAUCUUCGGAUGCAGAGGCGGCAGCCUUCGGUGGCGCGAUAGCGCCAACGUUCUCAACUAUGACACGCAAAACGCGUGCUCCGUUGAAUGGAGUUUAUCAUG
# Variants of: B1
# Assay: polymerase ribozyme fitness, log enrichment relative to wild type (log ratio); higher = more active; in vitro selection for triplet polymerase activity
# In short: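 Each subunit of a heterodimeric triplet polymerase ribozyme was mutagenized into a library by PCR, transcribed, and subjected to one round of in vitro selection, run in triplicate. Libraries were annealed with a biotinylated primer, the partner subunit and triplets, incubated frozen at −7 °C, and extended constructs were gel-excised, captured on streptavidin beads and recovered by RT-PCR. Input and output libraries were sequenced on Illumina, keeping genotypes with ≥10 input reads and ≥1 read per output. Fitness is log base 2 of genotype enrichment divided by wild-type enrichment, from inverse-variance-weighted replicate averages.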
row,Variant,polymerase ribozyme fitness (log ratio)
1,U4A C36A A52C A73G C95U,≤ -4.2
2,C5A G25C A41C C85U A89C A115G C132G U146C U148G,≤ -4.2
3,U4A C93A,-1.38
4,U4C U9A A41C G48C C51A G68A G83C,≤ -4.2
5,U4C A52U U82G C96A,-3.56
6,A3U A21C G62C C63U A73U C79U G84A C93G A106U U145G,≤ -4.2
7,U4C A12U A21G G59A C85G G124U,-2.83
8,U4G C75G A91U G92A U101G C125U,≤ -4.2
9,A3U C36A U55C C79A C99A U145G,≤ -4.2
10,A3C A47G A52G C87U C96U C99U G124A,-4.19
11,A3C G68U C93A,≤ -4.2
12,U4A C54U G92U C118U U134A,-3.6
13,A3C A17C A19U G25C C93U A115G A120U,≤ -4.2
14,U4A A20C A28C A29G C87A G141U,-4.08
15,C5A C76U G84U C125U G141U,-3.64
16,A3U A26U C57U C108U C125A A147C U148G,≤ -4.2
17,C5A A16G G50U C51A A89U U134G A137G G140A A142C A147C,≤ -4.2
18,A3C U9A G11A C35G C75A G117A U145C,≤ -4.2
19,U4G A12U A39C G62A C76U C87G A91U,≤ -4.2
20,C5A C54U A73G A119G G136A,-0.371
21,U4C C38G G59A U61A U148C,≤ -4.2
22,A3U A49G,-0.232
23,U4C A16U G83U U90C A113U U148C,≤ -4.2
24,A3G C5U C35U C85U A106G,0.235

row,Variant,polymerase ribozyme fitness (log ratio)
1,A3G U82G C95U U102G,-3.62
2,U4G A20G C35U G94C A97G C118A A137G A142U,-4.11
3,C5A C27U U33G C79A,≤ -4.2
4,A3C A47U,-0.813
5,A3U A49G G50A C96U G141A,-3.63
6,A3U U7A C14A A41C U45G C69A C87A G94A A121C,≤ -4.2
7,U4G C38U C93G,-2.52
8,A3U C38U C96U G126U G143A,≤ -4.2
9,U4G U15G A30G A41U G46U C69G C76U C93G G143C,≤ -4.2
10,U4G A52C G83A,-2.69
11,A3U G42U G48C C75G G86A C108A,≤ -4.2
12,U4A A21G U55G U101G G152A,≤ -4.2
13,A3U G46C U77C G86U A98U A121U U127A,-4.08
14,U4G A26U G50U C87A G141A A150U,≤ -4.2
15,A3U C93U C118U,-1.3
16,C5A C85U A97U G143A,-1.87
17,U4G C14G C76G,≤ -4.2
18,U4A A19C A89U C96U A138G U146G,≤ -4.2
19,A3G A24U C69G C93G A119G C132G U139A,≤ -4.2
20,U4A C54A C95A A138C,≤ -4.2
21,A3U C10U C54A U55A,-1.97
22,U4C A19U G50C C76U U144G,≤ -4.2
23,A3U A12G A28U C87U,≤ -4.2
24,U4A C76G A91U A115U,≤ -4.2

row,Variant,polymerase ribozyme fitness (log ratio)
1,U4C A52G G58U,-0.303
2,A3G U33G U55A A66C C108U,≤ -4.2
3,A3U G48C C51U C57U C95A A115C,≤ -4.2
4,C5A G11C C32G G92U C99A C125G G136U G141U,≤ -4.2
5,A3C A41G G50C U53G G67U G86C G128U C129U U146G C149U,≤ -4.2
6,C5A C99U,-0.267
7,A3C C14G C27U C85U U144G,-2.9
8,A3C C85U G136C,-3.76
9,U4A A24U U31G C54U G84A,-1.15
10,C5A A21C G74A U82G G92U,≤ -4.2
11,U4G A24C G84U G86U C108U A122G U151C,≤ -4.2
12,A3C U6G A49C G65A G71A G88C C93A U135C,≤ -4.2
13,A3C U15G A24G G117A U151A,≤ -4.2
14,A3U A26U A29U A49C C87U C114U G141A,≤ -4.2
15,U4G A41C A137C,≤ -4.2
16,A3C A121U,0.339
17,U4C C10A U15G G62C A64U G80A C93A C116A U127G C131U G141U U145A,≤ -4.2
18,U4C C43U C85U G133A G141U,≤ -4.2
19,A3U C43A U45A A47U G59C C125U U130C A137G,≤ -4.2
20,C5A C10U A41C A49C U139G U151G,≤ -4.2
21,U4A A22C G48U C75G G84A,≤ -4.2
22,A3U G11C U44A G58C G62A G68A G94C,≤ -4.2
23,A3C A23U A41C C43U U61A A64C C96U A107C A115G,≤ -4.2
24,U4C U7C A17U A41C G68C U78A C99A C103G,≤ -4.2

row,Variant,polymerase ribozyme fitness (log ratio)
1,A3U U4C A52C G67A G83U A122U A137U U148A,≤ -4.2
2,C5A G59A C76U U77A G84A C118G C132G,≤ -4.2
3,U4C U56G C63U C93G,-3.11
4,C5A C27A C87A U109A G126A,≤ -4.2
5,A3U C5G A21U C85U A122G G140U U144G,≤ -4.2
6,U4G G58A,0.794
7,U4A A147C,-0.789
8,U4G C35G C95G U134A G136U,-4.16
9,U4C G58A G83A C85U,-1.97
10,A3G A16C A26C U45A G59C G86C U130G U145G,≤ -4.2
11,A3U G133U U135G,≤ -4.2
12,U4A U6G A22U U31G C35U U56A G68C C95U C125G U144C,≤ -4.2
13,U4C C51U C96A A121C U134A,-3.3
14,A3U A16C A20C A47U U53G G86A A110G,≤ -4.2
15,A3U C8A A39U A91G U111A A115U G117U,≤ -4.2
16,A3C G11A A19C C54U A122U U135A G143A,-3.73
17,A3C U61A G84A G92A A120C,≤ -4.2
18,U4G A37U G81A C99A A106C U127G,≤ -4.2
19,C5A A21G A41C A64U C85A C96U A110U G117U,≤ -4.2
20,A3G C8G A22U A26G G46C C96U,≤ -4.2
21,A3C U4G A16G U33G C43U G92U A106G,≤ -4.2
22,U4C C14U G42A G84A C105G,≤ -4.2
23,A3C A47C G59C G86A,-3.89
24,U4G G84U A107U G140A,≤ -4.2

row,Variant,polymerase ribozyme fitness (log ratio)
1,A3U A40G C54U C95A C149G,≤ -4.2
2,A3C U6G A23U A39G U44A A89G C116G,≤ -4.2
3,A3U U82G,-0.249
4,U4C C85A C95G A115G,-3.75
5,U4A C27U G83C G117A A122G U146A,-3.14
6,A3U G59A C99U U144C A150G,≤ -4.2
7,A3U U6G C35G G50U U78G C79U G141U,≤ -4.2
8,A3G A47G U61A G94U C99A C108U U135G,≤ -4.2
9,U4A G48U C57G C93U G136A U146G,-2.55
10,A3C C5A A52C G65U C99G G133C,≤ -4.2
11,A3U C18U G50A G68A C76A G92C C93U,≤ -4.2
12,C5A A26U C35G A39U C76U C85U C118U A119C,-4.09
13,U4A G143U,-3.47
14,A3U C27G C38U G48U G58U C79G G92A C105U G117U G143U,≤ -4.2
15,U4G U13G C93U A120G G143A U148C,≤ -4.2
16,A3G A12C A37C G48A A49C U78G G86A C87G C99U A142C U146G,≤ -4.2
17,U4C C5G U55A C75A G88C G133U,-4.17
18,A3U U15G A19C A39C U44G U55A C57U A60G C63A G84A A110U A120C,≤ -4.2
19,A3U A17U U55G G84A C96A G133U G152C,≤ -4.2
20,A3U G92A G136C,-4
21,A3G C18A A19G U33G C125U,≤ -4.2
22,A3C G58U C76U G84A C85U G94A,-2.53
23,A3C U31G A52C U56A U61G A91C C108G A113U,≤ -4.2
24,U4C A24U G81A C85U A89C,-0.962

row,Variant,polymerase ribozyme fitness (log ratio)
1,U4A C8U A16U A40C U53A C57U C87A A97U U145G,≤ -4.2
2,U4A A121G A137C C149U,-4.16
3,A3C U56A C69A C93U G126A U139G,-2.53
4,C5A A28U,-3.92
5,A3C A12U G58C C118U,-1.52
6,A3U A37U U56A A97U,-3.82
7,U4C C87G A107G,≤ -4.2
8,A3C A12G C87G,-3.93
9,A3U C99U,-0.307
10,U4C A49U G94A A106G C123U,-1.94
11,U4C C96A,-0.253
12,C5A A21C C35U G74C G128U U139G,≤ -4.2
13,A3U G67U A107U,≤ -4.2
14,C5A A28G G34C G74A U82A G86A C93A A97C,≤ -4.2
15,A3U A49G G84C,-3.89
16,C5A C14G A22G A49C G50U G58C,-4.18
17,U4A A22U A40G U145A,-3.05
18,C5A A20G A22C C35A U77G C87A A115C G124C,≤ -4.2
19,U4A C8G U13G A24C C96U,≤ -4.2
20,A3G U6A U31G G88U,≤ -4.2
21,U4G A39G A142G,-3.9
22,C5A G11C C85U A119C C131G G141C,0.451
23,U4C C5U A23C A47C C79A C85G U90C G117U G152U,≤ -4.2
24,U4C A20U A29U G46C C54U C85U C116U,≤ -4.2

row,Variant,polymerase ribozyme fitness (log ratio)
1,U4G U6G A22C A73G G83C,≤ -4.2
2,U4C A60U G74A C93U A106U A107U A150C,≤ -4.2
3,U4A G94A,-0.663
4,U4C A21G G42A G48C G50C A64U G84C U102G U127A,≤ -4.2
5,U4G A97G C103G,-3.15
6,A3G G94A,-1.67
7,U4G A41U G50C C85G,≤ -4.2
8,C5A A113U,-2.74
9,U4A C38U A41U G59A A137U,-4.07
10,A3G U15G G25U A41C G83A U90A A98U C99G A113G,≤ -4.2
11,A3U C93U,-1.81
12,U4A A24U C57A C93U G94U G141U,-2.67
13,C5A A20C C96U,-0.294
14,U4G A12G A22U U53A C72G G100A U111G C125U,≤ -4.2
15,C5A C57G C75U G86A A91C,-4.01
16,A3C C8G U9G G59A C87A G92C G117C G133U,≤ -4.2
17,C5A U6G G46A U56A U82C C93A A107G C125U G136U,≤ -4.2
18,U4C G50C U56A G74A C87A G88U C116U,≤ -4.2
19,A3C C10G G62U G68C C87U A107C C123U G128A A137C U139C,≤ -4.2
20,U4C U6G G74C G80C G92U C103G A106U,≤ -4.2
21,U4C C85A,-1.34
22,A3C C51G U55G C75U C118A,≤ -4.2
23,A3U A142C,-1.59
